Laboratory results from paper PMC5570060 (Nucleic Acids Research, 2017).
Substitutions are numbered along the chain they refer to. Names may count otherwise. Read-outs that look alike come from different tables or passages of the source.

T1: Brr2^C-Sec63 (human, UniProt O75643 1840-2136)
T1 sequence (looked up): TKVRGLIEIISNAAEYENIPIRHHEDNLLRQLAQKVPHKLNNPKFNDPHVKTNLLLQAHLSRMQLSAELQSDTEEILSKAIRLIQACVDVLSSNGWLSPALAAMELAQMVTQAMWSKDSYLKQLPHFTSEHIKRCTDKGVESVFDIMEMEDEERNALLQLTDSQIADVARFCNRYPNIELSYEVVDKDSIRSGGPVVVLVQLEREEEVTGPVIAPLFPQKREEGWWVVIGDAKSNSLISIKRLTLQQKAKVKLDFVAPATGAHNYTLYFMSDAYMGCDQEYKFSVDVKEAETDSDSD

T2: Brr2^C-Sec63 pre-incubated with FBP21^116–376 (human | , UniProt O75643 1840-2136; O75554 116-376)
T2 sequence (looked up) 1: T1 sequence (looked up)
T2 sequence (looked up) 2: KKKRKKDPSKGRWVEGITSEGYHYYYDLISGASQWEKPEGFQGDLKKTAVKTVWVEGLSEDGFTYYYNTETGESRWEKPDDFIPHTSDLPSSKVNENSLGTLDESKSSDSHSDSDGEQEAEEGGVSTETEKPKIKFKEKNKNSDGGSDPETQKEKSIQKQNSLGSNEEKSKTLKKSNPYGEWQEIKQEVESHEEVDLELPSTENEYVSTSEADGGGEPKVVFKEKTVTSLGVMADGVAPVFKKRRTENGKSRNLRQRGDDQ

B1: FBP21^326–376 (domain or fragment, UniProt O75554 326-376, looked up)
chain: EADGGGEPKVVFKEKTVTSLGVMADGVAPVFKKRRTENGKSRNLRQRGDDQ
B2: FBP21^276–376 (domain or fragment, UniProt O75554 276-376, looked up)
chain: NSLGSNEEKSKTLKKSNPYGEWQEIKQEVESHEEVDLELPSTENEYVSTSEADGGGEPKVVFKEKTVTSLGVMADGVAPVFKKRRTENGKSRNLRQRGDDQ
B3: FBP21^116–376 (domain or fragment, UniProt O75554 116-376, looked up)
chain: T2 sequence (looked up) 2
B4: FBP21^116–376 pre-incubated with SmB peptide (complex)
chain: T2 sequence (looked up) 2
peptide: GTPMGMPPPGMRPPPPGMRGLL
B5: FBP21^200–376 (domain or fragment, UniProt O75554 200-376, looked up)
chain: HTSDLPSSKVNENSLGTLDESKSSDSHSDSDGEQEAEEGGVSTETEKPKIKFKEKNKNSDGGSDPETQKEKSIQKQNSLGSNEEKSKTLKKSNPYGEWQEIKQEVESHEEVDLELPSTENEYVSTSEADGGGEPKVVFKEKTVTSLGVMADGVAPVFKKRRTENGKSRNLRQRGDDQ
B6: FBP21^200–376 K357E/R359E (domain or fragment, UniProt O75554 200-376, looked up)
chain: B5 chain with K158E, R160E
B7: FBP21^200–376 K358A/R360A (domain or fragment, UniProt O75554 200-376, looked up)
chain: B5 chain with K159A, R161A

What was measured:
Assay in all cases: ITC
Brr2^C-Sec63 [1] = molecular target: T1, Brr2^C-Sec63
Brr2^C-Sec63 [2] = molecular target: T1, Brr2^C-Sec63; remark: listed apart in the source
Brr2^C-Sec63 [3] = molecular target: T1, Brr2^C-Sec63; remark: listed apart in the source
[4] = molecular target: T2, Brr2^C-Sec63 pre-incubated with …
FBP21^116–376 = molecular target: B3

Kd (Brr2^C-Sec63 [2]) | Binder | also measured
– | GVAPVFKKRRTENGKSRNLR [peptide 58] | Kd (Brr2^C-Sec63 [1]): 1.34 ± 0.19 µM
0.11 µM | B1 | –
0.298 µM | B2 | stoichiometry N (Brr2^C-Sec63 [2]): 1
0.275 ± 0.106 µM | B3 | –
– | B4 | Kd (Brr2^C-Sec63 [3]): 0.194 ± 0.014 µM
27.5 µM | GVMADGVAPVFKKRRTENGK [peptide 57] | stoichiometry N (Brr2^C-Sec63 [2]): 1
27.3 ± 3.01 µM | KRFKR [positively charged control peptide KRFKR] | –
– | GTPMGMPPPGMRPPPPGMRGLL [SmB-derived peptide] | Kd [4]: 14 ± 0.8 µM; Kd (FBP21^116–376): 16.8 ± 3 µM
20 ± 1.1 µM | FKKRR [core binding motif of peptide 57, ^356FKKRR^360] | –
37 ± 5.99 µM | GKKRR [positively charged control peptide GKKRR] | –
0.125 µM | B5 | stoichiometry N (Brr2^C-Sec63 [2]): 1
27.8 ± 0.9 µM | B6 | –
2.04 ± 0.37 µM | B7 | –
